The values that follow come from publication PMC3039135.

What all share (experiment): SPR
(In general: In SPR one partner is held on a chip, and binding of the other changes the refractive index at the surface.)

The target in assay [1] is 20.1_VH/WO2_VL rFab (mouse | human).
Assay [2] concerns the target gWO2_VH/WO2_VL rFab (mouse | human).
The target of assay [3] is WO2_VH/gWO2_VL rFab (mouse | human).
The target in assay [4] is WO2_VH/20.1_VL rFab (mouse | human).
The target of assay [5] is WO2 (Y58>A) mutant rFab (mouse | human).
In assay [6] the target is gWO2 rFab (mouse | human).
The target in assay [7] is biotinylated Aβ1–42 high molecular weight (HMW) soluble oligomers (human).
Assay [8] deals with biotinylated Aβ1–16 peptide (human).

A word on the Kd: it is the equilibrium constant for the complex coming apart. Read a high Kd as a looser complex. A word on the koff: it is the rate constant with which the complex falls apart. High values mean a short-lived complex, low ones a long-lived complex. A word on the kon: it is a measure of how fast the partners come together. Consider “Aβ1–16-Im7 fusion protein (domain or fragment)”, for which the Kd in assay [1] is 2.8 nM; in assay [2], 79 nM; in assay [3] it was 349 nM; in assay [4], 41 nM; in assay [5], 4.9 µM; in assay [6] it was 21.3 µM. The koff in assay [1] came out at 0.0015 s⁻¹; in assay [2] it was 0.026 s⁻¹; in assay [3], 0.145 s⁻¹; in assay [4], 0.0614 s⁻¹. Besides, the kon in assay [1] came to 540000 M⁻¹ s⁻¹; in assay [2], 330000 M⁻¹ s⁻¹; in assay [3], 390000 M⁻¹ s⁻¹; in assay [4] it was 1.5e+06 M⁻¹ s⁻¹.

B1: WO2/10D5_HCDR3 rFab (Fab, V domains shown)
VH: VTLKESGPGLLKPSQTLSLTCSFSGFSIRTSKVGVSWIRQPSGKGLEWLAHIYWDDDKRYNPSLESRLTISKDTSRDMVFMKITSVDTADTATYYCVRRPITPVLVDAMDYWGQGTTLTVSS
VL: DVLMTQTPLSLPVNLGEQASISCRSSQSIVHSNGHTYLEWYLQRPGQSPKLLIYQVSTRFSGVPDRFSGSGSGTDFTLRISRVEAEDLGVYYCFQASLVPLTFGAGTKLELK
B1: the Kd in assay [7] was determined as 89.2 nM; in assay [8] it was 154 nM. For the same molecule, the figures for the off-rate constant (koff) in assay [7] and in assay [8] were 0.00546 s⁻¹ and 0.00974 s⁻¹, respectively.

B2: WO2/12A11_HCDR3 rFab (Fab, V domains shown)
VH: VTLKESGPGLLKPSQTLSLTCSFSGFSIRTSKVGVSWIRQPSGKGLEWLAHIYWDDDKRYNPSLESRLTISKDTSRDMVFMKITSVDTADTATYYCARRTTTADYFAYWGQGTTLTVSS
VL: DVLMTQTPLSLPVNLGEQASISCRSSQSIVHSNGHTYLEWYLQRPGQSPKLLIYQVSTRFSGVPDRFSGSGSGTDFTLRISRVEAEDLGVYYCFQASLVPLTFGAGTKLELK
Consider B2, for which, in assay [7], the Kd is 135 nM, the koff was determined as 0.0261 s⁻¹ and the kon came out at 133000 M⁻¹ s⁻¹. Also, in assay [8], the Kd turned out to be 262 nM, the koff is 0.0449 s⁻¹ and the kon was 171000 M⁻¹ s⁻¹.
